Experiments:
[1] = target: ReoM-His (L. monocytogenes) (UniProt P60357); experiment: pull-down + cross-linking; L. monocytogenes ΔclpC strains making ReoM-His were cross-linked in vivo with formaldehyde; ReoM-His purified on MagneHis magnetic beads, decrosslinked by heat; MurA in the eluates detected by Western blot and quantified by densitometry
[2] = target: MurA N197D-Strep (L. monocytogenes) (UniProt Q8Y4C4); experiment: SPR
[3] = target: MurA S262L-Strep (L. monocytogenes) (UniProt Q8Y4C4); experiment: SPR
[4] = target: MurA-Strep (L. monocytogenes) (UniProt Q8Y4C4); experiment: SPR

Chain of UniProt P60357 (P60357 whole entry): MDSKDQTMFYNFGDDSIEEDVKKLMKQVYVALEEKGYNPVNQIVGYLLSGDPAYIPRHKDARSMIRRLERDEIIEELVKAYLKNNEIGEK

Substance | percent of wt MurA level copurified [1] [%] | Kd [2] [nM] | Kd [3] [nM] | Kd [4] [nM] | koff [4] [s⁻¹] | kon [4] [M⁻¹ s⁻¹]
MurA N197D (chromosomal allele, strain LMPR14) (from UniProt Q8Y4C4 1-430) (enzyme) | 13 | – | – | – | – | –
MurA S262L (chromosomal allele, strain LMPR13) (from UniProt Q8Y4C4 1-430) (enzyme) | 19 | – | – | – | – | –
recombinant ReoM (from UniProt P60357 1-90) (natural protein) | – | 700 | 800 | 900 | 0.0004 | 500
